Experimental data reported in patent US8834920B2, “Liposome composition for targeting egfr receptor” (Alza Corporation, priority 2006, dated 2014).
Each block holds one molecule with its values, some of them ahead of it.

Legend:
sEGFR-MMB [1] = target: T1, sEGFR-MMB (Homo sapiens, UniProt P00533); assay: Phage ELISA on coated sEGFR-MMB; type: binding; conditions: P190 phage, construct SEGFR-MMB
T1 construct: made in house; host or cells: HEK 293E
Protocol: (§1) The protein solution was removed and wells were rinsed twice with Tris-Buffered Saline containing 0.05% Tween-20 (TBS-T) using a plate washer (Embla). The wells were blocked with Starting Block in TBS for 1 hr at room temperature and rinsed twice with TBS-T. An equal volume of phage supernatant and Starting Block in TBS were incubated in the wells for 1 hr at room temperature, and the wells were rinsed five times with TBS-T. Anti-M13/horseradish peroxidase conjugate (Amersham), diluted 1:5000 in Starting Block in TBS, was added into the wells and incubated for 1 hour at room temperature, and then the wells were rinsed five times with TBS-T. Finally, chemiluminescent peroxidase substrate (Roche) was added to the wells, and chemiluminescence was measured on a Tecan plate reader.
Phage were amplified in XL-1 Blue host cells and purified by precipitation with 6% polyethylene glycol-8000/0.5 M sodium chloride. The precipitated phage were resuspended in phosphate-buffered saline in a volume that was 1/100th the original culture volume. For competitive ELISA experiments, plates were prepared by coating wells with sEGFR-MMB or the Control-MMB followed by blocking as described above. […] The binding reaction was incubated for 1 hr at room temperature, and then bound phage were detected with anti-M13/HRP as above. […] Bound phage were washed and detected with anti-M13/HRP as described above. […]

sEGFR-His6 = target: T2, sEGFR-His6 (Homo sapiens, UniProt P00533); assay: Phage ELISA on coated sEGFR-His6; type: binding; conditions: P190 phage, construct sEGFR-His6
T2 construct: made in house; host or cells: HEK293E (transient, secreted)
Protocol: (§2) The plates were held overnight at room temperature, washed twice with TBST (0.5M Tris Base, 9% NaCl, 0.05% tween, pH 7.6), and loaded with 200 μL per well of Starting Block (Pierce). […] The plates were held at room temperature for 1.5 hours for blocking. Plates were then washed twice with TBST and phage were added. The phage solutions were crude phage supernatant from overnight cultures diluted four-fold with Starting Block. After a one-hour incubation, the plates were washed thrice with TBST and 100 μL of a 1:5000 dilution of phage binding antibody conjugate (α-M13-HRP) was added to the wells. EGF was added if applicable. After a one-hour incubation the plates were washed five times with TBST, 100 μL of POD (BM Chemiluminescence ELISA substrate; Roche Applied Science) was added, and chemiluminescene recorded.

EGF + sEGFR-MMB Complex = target: T3, EGF + sEGFR-MMB Complex (Homo sapiens, UniProt P00533); assay: Phage ELISA on complex of EGF and sEGFR-MMB; type: binding
T3 construct: made in house
Protocol: as §2

Control-MMB = Control-MMB (Homo sapiens, UniProt P01857); assay: Phage ELISA on Control-MMB; type: binding
Protocol: as §1
The plates were held overnight at room temperature, washed twice with TBST (0.5M Tris Base, 9% NaCl, 0.05% tween, pH 7.6), and loaded with 200 μL per well of Starting Block (Pierce). […] The plates were held at room temperature for 1.5 hours for blocking. Plates were then washed twice with TBST and phage were added. […] After a one-hour incubation the plates were washed five times with TBST, 100 μL of POD (BM Chemiluminescence ELISA substrate; Roche Applied Science) was added, and chemiluminescene recorded.

A431 cells [2] = assay: Flow cytometry (FACS) of phage binding to A431 cells; type: cell-based, human
Protocol: (§3) To evaluate whether the selected peptides from phage display can bind to tumor cells that overexpress EGFR, A431 cells (epidermoid cancer) or an EGFR negative tumor cells, MCF-7 (breast carcinoma) were tested in a flow cytometry assay using fluorescence detection (FACS). For P145, PP146 and their control phage, 2.5×10^5 A431 cells were resuspended in 25 μl of flow staining buffer (dPBS with 1% BSA, 0.09% sodium azide) and incubated with 25 μl of phage clones for 1 hour at 4° C.
(§4) A431 cells (epidermoid cancer) which overexpress EGFR and EGFR-negative tumor cells, MCF-7 (breast carcinoma) were tested in a flow cytometry assay. Tumor cells (A431 and MCF-7) were harvested with 0.25% tyrpsin-EDTA and washed twice with FACS staining buffer (dPBS with 1% BSA, 0.09% sodium azide). […] After binding at 4° C., cells were washed twice with FACS staining buffer to remove unbound phage and then incubated with 0.5 μg of mouse anti-M13 monoclonal antibody conjugated to FITC (Fitzgerald Industries International, Inc. Concord, Mass.) for 1 hour at 4° C. Mouse anti-M13-FITC incubated with cells without phage was used as background binding. Cells were washed twice with FACS staining buffer to remove unbound detection antibody.

MCF-7 = assay: Flow cytometry (FACS) of phage binding to MCF-7 cells; type: cell-based, human; conditions: EGFR overexpressing vs EGFR negative cells
Protocol: as §3, §4

A431 cells [3] = assay: FACS of P190-MMB constructs or cetuximab on A431 cells; type: cell-based, human
sEGFR-MMB [4] = target: T1, sEGFR-MMB; assay: P190-MMB constructs, solid phase binding (BIAcore, ELISA) to immobilized sEGFR-MMB
Description: In contrast, 190-MMB as the 4316 construct, binds EGFR and the presence of excess EGF promotes its binding.

EGFR = assay: FACE (Fast Activated Cell-based ELISA) of EGFR phosphorylation

Molecule: DPCTWEVWGRECLQ [Peptide P190]
Relative Signal (sEGFR-MMB [1]): 3937 ± 335 | Relative Signal (sEGFR-His6): 6 | Relative Signal (EGF + sEGFR-MMB Complex; P190 phage, construct SEGFR-MMB + EGF): 29408 ± 259 | binding to dimeric EGFR in the presence of EGF or TGF-a (EGF + sEGFR-MMB Complex; phage ELISA): increased | binding to Control-MMB (Control-MMB): fails to bind | binding to A431 cells in the presence of EGF (A431 cells [2]): increased | binding to A431 cells in the presence of EGF and cetuximab (A431 cells [2]): decreases | binding to A431 tumor cells (A431 cells [2]; anti-phage-FITC, 4° C.): bind | binding to A431 compared to MCF-7 (MCF-7): bound more effectively to A431 cells

Molecule: KTCVSTTFDLWFVCFA (Random peptide) [Peptide P176]
binding to A431 relative to positive control phage displaying EGF (A431 cells [2]): comparable

Molecule: SGCLDALWQCVY (Random peptide) [Peptide P174]
binding to A431 relative to positive control phage displaying EGF (A431 cells [2]): comparable | binding to A431 compared to MCF-7 (MCF-7): greater to A431 than to MCF-7

Molecule: TLCRSFFHPLCYA (Random peptide) [Peptide P146]
binding to A431 relative to positive control phage displaying EGF (A431 cells [2]): weaker

Molecule: VLCHRYYHPICYT [Peptide P145]
binding to A431 relative to positive control phage displaying EGF (A431 cells [2]): weaker | binding to A431 compared to MCF-7 (MCF-7): greater binding to A431 than MCF-7 cells

B1: 4315: P190-MMB construct, Flex GGGGS, n 2 (protein)
chain: GGDPCTWEVWGRECLQGGGGSGGGGSCPPCPAPEAAGGPSVFLFPPKPKDTLMISRTPEVTCVVVDVSQEDPEVQFNWYVDGVEVHNAKTKPREEQFNSTYRVVSVLTVLHQDWLNGKEYKCKVSNKGLPSSIEKTISKAKGQPREPQVYTLPPSQEEMTKNQVSLTCLVKGFYPSDIAVEWESNGQPENNYKTTPPVLDSDGSFFLYSRLTVDKSRWQEGNVFSCSVMHEALHNHYTQKSLSLSLGK
binding to A431 (A431 cells [3]): little binding

binding rank among linker variants (sEGFR-MMB [4]; ELISA and FACS): best binder
B2: 4316: P190-MMB construct with the longest linker, Flex GGGGS, n 4 (protein)
chain: GGDPCTWEVWGRECLQGGGGSGGGGSGGGGSGGGGSCPPCPAPEAAGGPSVFLFPPKPKDTLMISRTPEVTCVVVDVSQEDPEVQFNWYVDGVEVHNAKTKPREEQFNSTYRVVSVLTVLHQDWLNGKEYKCKVSNKGLPSSIEKTISKAKGQPREPQVYTLPPSQEEMTKNQVSLTCLVKGFYPSDIAVEWESNGQPENNYKTTPPVLDSDGSFFLYSRLTVDKSRWQEGNVFSCSVMHEALHNHYTQKSLSLSLGK
on-rate (sEGFR-MMB [4]): much more pronounced on-rate than the other constructs | effect of EGF on binding to A431 (A431 cells [3]; excess rhEGF): enhanced binding | interference with EGF activation of EGFR (EGFR): nor interfere with EGF activation of EGFR | EGFR phosphorylation (receptor activation) (EGFR; absence of EGF): did not induce EGFR phosphorylation
